Measurements published in the supplement of paper PMC9170038.

Tested on: MS2 coat protein
Experiment: apparent KD of MS2 coat protein; designed switch direction (-1 OFF switch, 1 ON switch): -1; higher = weaker reporter binding
Procedure, shortened: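 Normalised cluster fluorescence was curve-fitted, and each design's median over clusters is its apparent KD. Before this, SNAP-549-labelled MS2 coat protein was titrated from 0.7 or 1.5 nM, doubling to 3 µM, over RNA switches transcribed on Illumina chips by stalled E. coli RNA polymerase. Titrations had no input, 200 uM small-molecule ligand, or an oligonucleotide input, and steps lasted 0.8–1.5 h (lowest) to 10–20 min (highest).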

[1] = input ligand: microRNA oligo, concentration not stated
[2] = Eterna round: R95, input ligand: FMN 200 uM
[3] = Eterna round: R95, input ligand: microRNA oligo, concentration not stated
[4] = Eterna round: R95, input ligand: none

| Sequence | apparent KD of MS2 coat protein (input ligand: FMN 200 uM) | apparent KD of MS2 coat protein (input ligand: none) | apparent KD of MS2 coat protein [1] | apparent KD of MS2 coat protein [2] | apparent KD of MS2 coat protein [3] | apparent KD of MS2 coat protein [4] |
| --- | --- | --- | --- | --- | --- | --- |
| GGUUAGGCAGGAUAUACCCACAGUGUCUGUAGAAUCGCAAGACAUGAGGAUCACCCAUGUAGAAGGGCCGACCG [Eternabot (L1) Solution 1] (Eterna round: R97, puzzle: Exclusion 2) | 184 nM | 273 nM | – | – | – | – |
| UACAUGUGAGGAUAUGUACGAAGCCCGGCUGGGCCUCGCAGGCAGAAGGCACAUGAGGAUCACCCAUGUGACCG [Enanvezave] (Eterna round: R96, puzzle: Exclusion 4) | 82.6 nM | 17.3 nM | 13.1 nM | – | – | – |
| GUAAUUAUAUAGGAUAUCGAACUUAUAAUUUAACGAGAAGGAUGAACAUGAGGAUCACCCAUGUGGUAUCAUGG [JL-ex6-3.07] (puzzle: Exclusion 6) | – | – | – | 131 nM | 207 nM | 284 nM |
| ACUGUUGCAGGAUAUAUGGUGCUAGACAUGAGGAUCACCCAUGUAGGCCUUGUCUAGCAGGUAGAAGGGCACCCAC [Eternabot (L1) Solution 94] (Eterna round: R97, puzzle: Exclusion 5) | 503 nM | 224 nM | – | – | – | – |
| AGUUGGCGAGGAUAUACAUGAGGAUCACCCAUGUGAGAGAAAAAAGUGAGGAAGAAAAGUAGAAGGCGCUGACC [salish99_ex3_r3_041] (puzzle: Exclusion 3) | – | – | – | 245 nM | 49.8 nM | 81.8 nM |
| CAGCUGAAUGUGAGGAUAUGUCGAGCGAUAGCUCGAUAGAAGGCACAUGAGGAUCACCCAUGUCUCAACAGCUG [BmEx4/2-C4] (Eterna round: R97, puzzle: Brourd's mod of Exclusion 4) | 349 nM | 28.3 nM | – | – | – | – |
| CUGCUGGAGUUUCGCUUUGGUCGUACAUGAGGAUCACCCAUGUAGGAUAUGGUAAAAUUCGCCUGCUAGAAGGAUAGAGUGGUC [salish99_ExNG3_r04_620] (Eterna round: R96, puzzle: Exclusion NG 3) | 48.1 nM | 42.3 nM | 38.6 nM | – | – | – |
| AACCAGCGAGGAUAUGCUUGCGCGUGUUCUAGUUGUAAUCGACUUGAGGAUCACCCAAGUAGAAGGCGCUGCCG [EX2 #50] (Eterna round: R97, puzzle: Exclusion 2) | 103 nM | 119 nM | – | – | – | – |
| AGUACUAUCACGAAAGUGAUAGUACAAAAUAGCAAGUGAACAUGAGGAUCACCCAUGUCCUCAUUUGCUCGUCUUAU [Sensor 3 - 19] (puzzle: Sensor v3, turn-off variant 2) | – | – | – | 15.1 nM | 426 nM | 14.2 nM |
| UUUUAACAUGAGGAUCACCCAUGUGAGGAUAUCGAAAUUUAUAUUAAUAUUAAUUUAACGAGAAGGCACAUUUU [JMF 31] (puzzle: Exclusion 1) | – | – | – | – | 88.5 nM | – |
| AUUUAAUUUAGCGAGAUCACAUGAGGAUCACCCAUGUAUAUAUAGGAUAUCAGCUCGAUUAGAGCUGAGAAGGAUAUAUACCGC [ExNG3/7-A1] (Eterna round: R96, puzzle: Exclusion NG 3) | 170 nM | 82 nM | 98.7 nM | – | – | – |
| CUCAUGUGAGGAUAUCACCCAAGAGUGAGCAAUCACUAUCAUGAGAAGGCACAUGAGGAUCACCCAUGUUAAAA [Xesoer] (Eterna round: R97, puzzle: Exclusion 4) | 11.5 nM | 57.7 nM | – | – | – | – |
| AGAGAAUAGUCAGGAUAUGUGAAUAGAUAGAGAACAGAAGGGACACAUGAGGAUCACCCAUGUGAAGUCUUGAGGCUGCGUGGA [Prohibition 21 - Jieux - Exclusion NG 1] (Eterna round: R96, puzzle: Exclusion NG 1) | 22.1 nM | 20.3 nM | 17.5 nM | – | – | – |
| AUUAUGUUAGGAUAUGCUUAUGGUGGAUAGUCCAGUAUGGUGCAGAAGGGACAUGAGGAUCACCCAUGUGCUGA [EX4 #32] (Eterna round: R97, puzzle: Exclusion 4) | 50.9 nM | 52.8 nM | – | – | – | – |
| AGCAUGUAAGGAUAUGCAACACAGCUUUCAAUCGCUGUGCCGCAGAAGGUACAUGAGGAUCACCCAUGUGCUCC [Anesonza] (puzzle: Exclusion 4) | – | – | – | – | 75.6 nM | – |
| CUCCAGCAAGGAUAUACGUGUCUAAGAAGAGGUCUUAUGCUACAUGAGGAUCACCCAUGUAGAAGGUGCGGACA [EX2 C.2] (Eterna round: R97, puzzle: Exclusion 2) | 14.4 nM | 15.4 nM | – | – | – | – |
| AGUCAGGCGGUAGGAUAUCCAAACCGAGUGACCCUCUCAUAACAUGAGGAUCACCCAUGUCGGUGGGAGAAGGGCCGUACGGCG [Atra] (Eterna round: R96, puzzle: Exclusion NG 2) | 206 nM | 117 nM | 90 nM | – | – | – |
| AGUAACUAUCACGAAAGUGAUAGUUACAGCAAGUGAUAAACAUGAGGAUCACCCAUGUCCUCAUUUGCUCGUCUUAU [Sensor 3 - 12] (puzzle: Sensor v3, turn-off variant 2) | – | – | – | 15.1 nM | 739 nM | 12.7 nM |

| Sequence | apparent KD of MS2 coat protein (input ligand: FMN 200 uM) | apparent KD of MS2 coat protein (input ligand: none) | apparent KD of MS2 coat protein [1] | apparent KD of MS2 coat protein [2] | apparent KD of MS2 coat protein [3] | apparent KD of MS2 coat protein [4] |
| --- | --- | --- | --- | --- | --- | --- |
| CCCGUGUUAGGAUAUACGGCACACCCGCCAGCGGGUAUAUAGUAGAAGGAACAUGAGGAUCACCCAUGUAUAGC [Sobiza] (puzzle: Exclusion 4) | – | – | – | – | 15.6 nM | – |
| UUUAUGUCAGGAUAUGAGUAGUAGAACAAUAGUACUACUACUCAGAAGGGACAUGAGGAUCACCCAUGUGCCUC [Fiskers Ex 4 Super stable 44 mod 22] (Eterna round: R96, puzzle: Exclusion 4) | 326 nM | 40.4 nM | 32.3 nM | – | – | – |
| AGCAGACGAGGAUAUGAUAAUUAAUACAUGAGGAUCACCCAUGUAAUACUGAUCCAUGGAUCAGAAGGCGUCUGCU [E5/4-A1] (Eterna round: R97, puzzle: Exclusion 5) | 27.1 nM | 17.6 nM | – | – | – | – |
| UUGUUAUAUGUAGGAUAUGCAUAUUAUUAUUAUGCAGAAGGACAUGAGGAUCACCCAUGUGUAUUGUUAUUAUAUAUUAUAUAU [Title] (Eterna round: R96, puzzle: Exclusion NG 1) | – | – | 16.5 nM | – | – | – |
| AAAAGCUCAGUCAGGAUAUGCAUUUGCACCGGCGAGCAGAAGGGACAUGAGGAUCACCCAUGUACGCGGCAGGG [Laaraor] (puzzle: Brourd's mod of Exclusion 4) | – | – | – | 80.8 nM | 37.1 nM | 59.9 nM |
| GAGAUGUGAGGAUAUCUGGACCGUGGAAGAGCCACGGUCCGAGAGAAGGCACAUGAGGAUCACCCAUGUGAUGA [Inerusce] (puzzle: Exclusion 4) | – | – | – | – | 42.8 nM | – |
| UGAGCAUCAGGAUAUACAAGGCGACCGUGAGGUCGAGGGUUACAUGAGGAUCACCCAUGUAGAAGGGAUGUUCU [jl-ex2-4.09] (Eterna round: R97, puzzle: Exclusion 2) | 196 nM | 43.4 nM | – | – | – | – |
| UUUAUAAUUUCAAUCUUCGCCAACAAACUUACGCUGGCCACAUGAGGAUCACCCAUGUUUUUUGUUCGUUUUAUUCU [Veorenxere] (puzzle: Sensor v3, turn-off variant 2) | – | – | – | 18.8 nM | 56.4 nM | 21.9 nM |
| GCGGGAAAAGGAUAUGAGAGGUAAUACAUGAGGAUCACCCAUGUGAUAGACUCUGUGCUUUUAGAAGGUUUAUGUC [Eternabot (L1) Solution 19] (Eterna round: R97, puzzle: Exclusion 5) | 14.3 nM | 15.3 nM | – | – | – | – |
| AAAAAGACAGGAUAUACAUGAGGAUCACCCAUGUGAAACAAAAUAAAAUAAAAUAAAAGUAGAAGGGUCAAAAA [Exclusion 3 #2] (puzzle: Exclusion 3) | – | – | – | 33.8 nM | 31.9 nM | 31.7 nM |
| UAUUUACAUGAGGAUCACCCAUGUCAGGAUAUGCGUCUAUCGUCGAAAGACGAUAGUCGCAGAAGGGACAAUAU [LRO-Excl01-22 mod derived from EliFisker 4.24] (Eterna round: R97, puzzle: Exclusion 1) | 100 nM | 48.9 nM | – | – | – | – |
| UGGGUUCUCCAUGGAAGUAACAUGAGGAUCACCCAUGUAGGGCAAGUUUUUUGCUCGUCAUAGGCCGUGGGUUUGGA [JR_SV3TOV1_Sub019] (puzzle: Sensor v3, turn-off variant 1) | – | – | – | 252 nM | 248 nM | 305 nM |
| UUUAAUUUUUUUUUUUUACAAGCUUUUUGCUCGUCUUAUACAUGAGGAUCACCCAUGUGAGUGAGGGAUAAAUUAUC [JMF 41] (puzzle: Sensor v3, turn-off variant 2) | – | – | – | 19.4 nM | 23.9 nM | 16.7 nM |
| CAUGAUUGGGAAGGAUAUUGACCUAGUUAGCGACGAGAAGGUCCCUGUCACAUGAGGAUCACCCAUGUGAAUCUGGUGAAAGAG [Ex NG1 #100] (Eterna round: R96, puzzle: Exclusion NG 1) | 29.8 nM | 24.2 nM | 20.4 nM | – | – | – |
| AAAGAAGAGAGAAAAUAACACAUGAGGAUCACCCAUGUGAGAAGAUGAGGGUGAUACAGGCUAUAUGCUCGUCUUAU (puzzle: Sensor v3, turn-off variant 1) | – | – | – | 62.9 nM | 350 nM | 104 nM |
| CCUUGUGUUGAGGAUAUGCGCCGGCUCGCUGGCGCAGAAGGCGGCACAUGAGGAUCACCCAUGUCAGUUCGCGU [salish99_ex6_r004_014] (Eterna round: R97, puzzle: Exclusion 6) | 431 nM | 29.8 nM | – | – | – | – |
| CCGUCGAUAGGAUAUACUCCAAGCGAUGGGUGAACCUUUGGACUUGAGGAUCACCCAAGUAGAAGGAUUGACUU [Aorbete] (Eterna round: R97, puzzle: Exclusion 2) | 122 nM | 71 nM | – | – | – | – |
